Results reported in patent US20140357577A1, “HIV Membrane Fusion Inhibitors” (priority 2011, published 2014).
Starred links: 1 amine or outer side, 2 acyl side, 3 side chain; linkers in the order of their positions; H or OH if unused. Positions of bridges follow the written chain, without caps; N, C: chain ends. Non-standard residues stand in square brackets, D forms with d. *: point of attachment. pXylylene = c1cc(C[*:2])ccc1C[*:1]; Palmitoyl = CCCCCCCCCCCCCCCC(=O)*; tBuAla = CC(C)(C)C[C@H](N)C(=O)O; Suc = O=C(CCC(=O)[*:2])[*:1]; Hexanoyl = CCCCCC(=O)*; Pentanoyl = CCCCC(=O)*; Butyryl = CCCC(=O)*

B1: peptide 7 (peptide)
peptide: Suc-ANYLALIEALIRAAQEQQEKNEAALR-NH2
SMILES: CC[C@H](C)[C@H](NC(=O)[C@H](CC(C)C)NC(=O)[C@H](C)NC(=O)[C@H](CCC(=O)O)NC(=O)[C@@H](NC(=O)[C@H](CC(C)C)NC(=O)[C@H](C)NC(=O)[C@H](CC(C)C)NC(=O)[C@H](Cc1ccc(O)cc1)NC(=O)[C@H](CC(N)=O)NC(=O)[C@H](C)NC(=O)CCC(=O)O)[C@@H](C)CC)C(=O)N[C@@H](CCCNC(=N)N)C(=O)N[C@@H](C)C(=O)N[C@@H](C)C(=O)N[C@@H](CCC(N)=O)C(=O)N[C@@H](CCC(=O)O)C(=O)N[C@@H](CCC(N)=O)C(=O)N[C@@H](CCC(N)=O)C(=O)N[C@@H](CCC(=O)O)C(=O)N[C@@H](CCCCN)C(=O)N[C@@H](CC(N)=O)C(=O)N[C@@H](CCC(=O)O)C(=O)N[C@@H](C)C(=O)N[C@@H](C)C(=O)N[C@@H](CC(C)C)C(=O)N[C@@H](CCCNC(=N)N)C(N)=O
B2: peptide 86 (peptide)
peptide: Hexanoyl-ECYLACIEELIRKAQEQQEKNEAALR-NH2
modifications: linker 2-6 via pXylylene
SMILES: CCCCCC(=O)N[C@@H](CCC(=O)O)C(=O)N[C@H]1CSCc2ccc(cc2)CSC[C@@H](C(=O)N[C@H](C(=O)N[C@@H](CCC(=O)O)C(=O)N[C@@H](CCC(=O)O)C(=O)N[C@@H](CC(C)C)C(=O)N[C@H](C(=O)N[C@@H](CCCNC(=N)N)C(=O)N[C@@H](CCCCN)C(=O)N[C@@H](C)C(=O)N[C@@H](CCC(N)=O)C(=O)N[C@@H](CCC(=O)O)C(=O)N[C@@H](CCC(N)=O)C(=O)N[C@@H](CCC(N)=O)C(=O)N[C@@H](CCC(=O)O)C(=O)N[C@@H](CCCCN)C(=O)N[C@@H](CC(N)=O)C(=O)N[C@@H](CCC(=O)O)C(=O)N[C@@H](C)C(=O)N[C@@H](C)C(=O)N[C@@H](CC(C)C)C(=O)N[C@@H](CCCNC(=N)N)C(N)=O)[C@@H](C)CC)[C@@H](C)CC)NC(=O)[C@H](C)NC(=O)[C@H](CC(C)C)NC(=O)[C@H](Cc2ccc(O)cc2)NC1=O
B3: peptide 91 (peptide)
peptide: Pentanoyl-ECYLRCIEELIRKAQEQQEKNEAALR-NH2
modifications: linker 2-6 via pXylylene
SMILES: CCCCC(=O)N[C@@H](CCC(=O)O)C(=O)N[C@H]1CSCc2ccc(cc2)CSC[C@@H](C(=O)N[C@H](C(=O)N[C@@H](CCC(=O)O)C(=O)N[C@@H](CCC(=O)O)C(=O)N[C@@H](CC(C)C)C(=O)N[C@H](C(=O)N[C@@H](CCCNC(=N)N)C(=O)N[C@@H](CCCCN)C(=O)N[C@@H](C)C(=O)N[C@@H](CCC(N)=O)C(=O)N[C@@H](CCC(=O)O)C(=O)N[C@@H](CCC(N)=O)C(=O)N[C@@H](CCC(N)=O)C(=O)N[C@@H](CCC(=O)O)C(=O)N[C@@H](CCCCN)C(=O)N[C@@H](CC(N)=O)C(=O)N[C@@H](CCC(=O)O)C(=O)N[C@@H](C)C(=O)N[C@@H](C)C(=O)N[C@@H](CC(C)C)C(=O)N[C@@H](CCCNC(=N)N)C(N)=O)[C@@H](C)CC)[C@@H](C)CC)NC(=O)[C@H](CCCNC(=N)N)NC(=O)[C@H](CC(C)C)NC(=O)[C@H](Cc2ccc(O)cc2)NC1=O
B4: peptide 90 (peptide)
peptide: Suc-ECYLACIEELIRKAQEQQEKNEAALR-NH2
modifications: linker 2-6 via pXylylene
SMILES: CC[C@H](C)[C@H](NC(=O)[C@@H]1CSCc2ccc(cc2)CSC[C@H](NC(=O)[C@H](CCC(=O)O)NC(=O)CCC(=O)O)C(=O)N[C@@H](Cc2ccc(O)cc2)C(=O)N[C@@H](CC(C)C)C(=O)N[C@@H](C)C(=O)N1)C(=O)N[C@@H](CCC(=O)O)C(=O)N[C@@H](CCC(=O)O)C(=O)N[C@@H](CC(C)C)C(=O)N[C@H](C(=O)N[C@@H](CCCNC(=N)N)C(=O)N[C@@H](CCCCN)C(=O)N[C@@H](C)C(=O)N[C@@H](CCC(N)=O)C(=O)N[C@@H](CCC(=O)O)C(=O)N[C@@H](CCC(N)=O)C(=O)N[C@@H](CCC(N)=O)C(=O)N[C@@H](CCC(=O)O)C(=O)N[C@@H](CCCCN)C(=O)N[C@@H](CC(N)=O)C(=O)N[C@@H](CCC(=O)O)C(=O)N[C@@H](C)C(=O)N[C@@H](C)C(=O)N[C@@H](CC(C)C)C(=O)N[C@@H](CCCNC(=N)N)C(N)=O)[C@@H](C)CC
B5: peptide 11 (peptide)
peptide: Suc-ANYLALIEAL[tBuAla]RAAQEQQEKNEAALR-NH2
SMILES: CC[C@H](C)[C@H](NC(=O)[C@H](CC(C)C)NC(=O)[C@H](C)NC(=O)[C@H](CC(C)C)NC(=O)[C@H](Cc1ccc(O)cc1)NC(=O)[C@H](CC(N)=O)NC(=O)[C@H](C)NC(=O)CCC(=O)O)C(=O)N[C@@H](CCC(=O)O)C(=O)N[C@@H](C)C(=O)N[C@@H](CC(C)C)C(=O)N[C@@H](CC(C)(C)C)C(=O)N[C@@H](CCCNC(=N)N)C(=O)N[C@@H](C)C(=O)N[C@@H](C)C(=O)N[C@@H](CCC(N)=O)C(=O)N[C@@H](CCC(=O)O)C(=O)N[C@@H](CCC(N)=O)C(=O)N[C@@H](CCC(N)=O)C(=O)N[C@@H](CCC(=O)O)C(=O)N[C@@H](CCCCN)C(=O)N[C@@H](CC(N)=O)C(=O)N[C@@H](CCC(=O)O)C(=O)N[C@@H](C)C(=O)N[C@@H](C)C(=O)N[C@@H](CC(C)C)C(=O)N[C@@H](CCCNC(=N)N)C(N)=O
B6: peptide 88 (peptide)
peptide: Suc-ECYLRCIEELIRKAQEQQEKNEAALRGSGK(Palmitoyl)-NH2
modifications: linker 2-6 via pXylylene
SMILES: CCCCCCCCCCCCCCCC(=O)NCCCC[C@H](NC(=O)CNC(=O)[C@H](CO)NC(=O)CNC(=O)[C@H](CCCNC(=N)N)NC(=O)[C@H](CC(C)C)NC(=O)[C@H](C)NC(=O)[C@H](C)NC(=O)[C@H](CCC(=O)O)NC(=O)[C@H](CC(N)=O)NC(=O)[C@H](CCCCN)NC(=O)[C@H](CCC(=O)O)NC(=O)[C@H](CCC(N)=O)NC(=O)[C@H](CCC(N)=O)NC(=O)[C@H](CCC(=O)O)NC(=O)[C@H](CCC(N)=O)NC(=O)[C@H](C)NC(=O)[C@H](CCCCN)NC(=O)[C@H](CCCNC(=N)N)NC(=O)[C@@H](NC(=O)[C@H](CC(C)C)NC(=O)[C@H](CCC(=O)O)NC(=O)[C@H](CCC(=O)O)NC(=O)[C@@H](NC(=O)[C@@H]1CSCc2ccc(cc2)CSC[C@H](NC(=O)[C@H](CCC(=O)O)NC(=O)CCC(=O)O)C(=O)N[C@@H](Cc2ccc(O)cc2)C(=O)N[C@@H](CC(C)C)C(=O)N[C@@H](CCCNC(=N)N)C(=O)N1)[C@@H](C)CC)[C@@H](C)CC)C(N)=O
B7: peptide 92 (peptide)
peptide: Pentanoyl-ECYLCLIEELIRKAQEQQEKNEAALR-NH2
modifications: linker 2-5 via pXylylene
SMILES: CCCCC(=O)N[C@@H](CCC(=O)O)C(=O)N[C@H]1CSCc2ccc(cc2)CSC[C@@H](C(=O)N[C@@H](CC(C)C)C(=O)N[C@H](C(=O)N[C@@H](CCC(=O)O)C(=O)N[C@@H](CCC(=O)O)C(=O)N[C@@H](CC(C)C)C(=O)N[C@H](C(=O)N[C@@H](CCCNC(=N)N)C(=O)N[C@@H](CCCCN)C(=O)N[C@@H](C)C(=O)N[C@@H](CCC(N)=O)C(=O)N[C@@H](CCC(=O)O)C(=O)N[C@@H](CCC(N)=O)C(=O)N[C@@H](CCC(N)=O)C(=O)N[C@@H](CCC(=O)O)C(=O)N[C@@H](CCCCN)C(=O)N[C@@H](CC(N)=O)C(=O)N[C@@H](CCC(=O)O)C(=O)N[C@@H](C)C(=O)N[C@@H](C)C(=O)N[C@@H](CC(C)C)C(=O)N[C@@H](CCCNC(=N)N)C(N)=O)[C@@H](C)CC)[C@@H](C)CC)NC(=O)[C@H](CC(C)C)NC(=O)[C@H](Cc2ccc(O)cc2)NC1=O
B8: peptide 85 (peptide)
peptide: Butyryl-ECYLACIEELIRKAQEQQEKNEAALR-NH2
modifications: linker 2-6 via pXylylene
SMILES: CCCC(=O)N[C@@H](CCC(=O)O)C(=O)N[C@H]1CSCc2ccc(cc2)CSC[C@@H](C(=O)N[C@H](C(=O)N[C@@H](CCC(=O)O)C(=O)N[C@@H](CCC(=O)O)C(=O)N[C@@H](CC(C)C)C(=O)N[C@H](C(=O)N[C@@H](CCCNC(=N)N)C(=O)N[C@@H](CCCCN)C(=O)N[C@@H](C)C(=O)N[C@@H](CCC(N)=O)C(=O)N[C@@H](CCC(=O)O)C(=O)N[C@@H](CCC(N)=O)C(=O)N[C@@H](CCC(N)=O)C(=O)N[C@@H](CCC(=O)O)C(=O)N[C@@H](CCCCN)C(=O)N[C@@H](CC(N)=O)C(=O)N[C@@H](CCC(=O)O)C(=O)N[C@@H](C)C(=O)N[C@@H](C)C(=O)N[C@@H](CC(C)C)C(=O)N[C@@H](CCCNC(=N)N)C(N)=O)[C@@H](C)CC)[C@@H](C)CC)NC(=O)[C@H](C)NC(=O)[C@H](CC(C)C)NC(=O)[C@H](Cc2ccc(O)cc2)NC1=O

The binders below were run against gp41 of HIV-1 strain HXB2D with mutation V38A (HIV-1 strain HXB2D, UniProt P04578) (assay: cell-based or functional assay).

Binder	fold change in EC50, HIV-HXB2D V38A mutant [fold]
B1	33
Ac-ANYLALIEELIRAAQEQQEKNEAALR-NH2 [peptide 10]	50
B2	2
Ac-ACYAACIEALIRAAQEQQEKNEAALR-NH2 (linker 2-6 via 1,4‑dimethylnaphthyl) [peptide 89]	75
B3	2
B4	6
B5	26
B6	1
B7	2
Ac-ENYLALIEALIRAAQEQQEKNEAALR-NH2 [peptide 8]	46
B8	3
Ac-ANYAALIEALIRKAQEQQEKNEAALR-NH2 [peptide 5]	53
Ac-ENYLALIEALIRAAQEQQEKNEAALL-NH2 [peptide 9]	72
Ac-ANYLALIEALIRAAQEQQEKNEAALR-NH2 [peptide 6]	51
